This passage reports binding result, OD450 nm and IC50 results from patent US20220372150A1 (ZHEJIANG DOER BIOLOGICS, published 2022).

One may read the IC50 as the concentration that inhibits the measured activity by half. The low end stands for greater potency in that assay, the high end for weaker potency in that assay.

B1: anti-PDL1 single-domain antibody 1D7, histidine-tagged (VHH)
VHH: QVQLVESGGGLVQPGGSLRLSCAASGRAFLTYAMGWFRQAPGKEREFVAAISWSGSSTYYADSVKGRFTISRDNAKNMVYLQMNSLKPEDTAVYYCAAKVSGATRDHLMTTYDYWGQGTQVTVSS
notes: not shown: C-terminal histidine tag
B2: anti-PDL1 single-domain antibody 1G10, histidine-tagged (VHH)
VHH: QVQLVESGGGLVQAGGSLRLSCAASGRPFITYAMGWFRQAPGKEREFVAAINWSGSITAYADSVKGRFTISRDNAKNAAYLQMNSLKPDDTAVYYCASKRTAVAPRALNDYDFWGQGTQVTVSS
notes: as for B1
B3: anti-PDL1 single-domain antibody 6F1, histidine-tagged (VHH)
VHH: QLQLVESGGGLVQPGGSLRLSCAASGRTFSTHSMHWFRQAPEKERVFVAAINWNGDSTYYADSVKGRFTISRDNSKNTVDLQMNNLKPEDTAVYVCAARPGAPSTIVAMLDYWGQGTQVTVSS
notes: as for B1
B4: anti-PDL1 single-domain antibody 1A7, histidine-tagged (VHH)
VHH: QLQLVESGGDLVQPGGSLRLSCAASGSIFSANLIDWYRQPPGKQRELVAVISSRGITSYADSVKGRFTISRDNAKNTVYLQMNSLKPEDTAVYYCHLFHTDGLGYWGQGTQVTVSS
notes: as for B1
B5: anti-PDL1 single-domain antibody 1D1, histidine-tagged (VHH)
VHH: QLQLVESGGGLVQAGGSLRLSCAASGGTFITYAMGWFRQAPGKDREFVAGISWSGSSTYYTDSVKGRFTISRDNAKNTVYLQMNSLKPGDTAVYYCAAKISGATREHLMTSYDYWGQGTQVTVSS
notes: as for B1
B6: anti-PDL1 single-domain antibody 5A8, histidine-tagged (VHH)
VHH: B5 VHH with A14P, K76Q, L86R, M109R, W115G
notes: as for B1

Substitutions are numbered along the chain they refer to.

T1 sequence (chain, as listed by the source limits assumed): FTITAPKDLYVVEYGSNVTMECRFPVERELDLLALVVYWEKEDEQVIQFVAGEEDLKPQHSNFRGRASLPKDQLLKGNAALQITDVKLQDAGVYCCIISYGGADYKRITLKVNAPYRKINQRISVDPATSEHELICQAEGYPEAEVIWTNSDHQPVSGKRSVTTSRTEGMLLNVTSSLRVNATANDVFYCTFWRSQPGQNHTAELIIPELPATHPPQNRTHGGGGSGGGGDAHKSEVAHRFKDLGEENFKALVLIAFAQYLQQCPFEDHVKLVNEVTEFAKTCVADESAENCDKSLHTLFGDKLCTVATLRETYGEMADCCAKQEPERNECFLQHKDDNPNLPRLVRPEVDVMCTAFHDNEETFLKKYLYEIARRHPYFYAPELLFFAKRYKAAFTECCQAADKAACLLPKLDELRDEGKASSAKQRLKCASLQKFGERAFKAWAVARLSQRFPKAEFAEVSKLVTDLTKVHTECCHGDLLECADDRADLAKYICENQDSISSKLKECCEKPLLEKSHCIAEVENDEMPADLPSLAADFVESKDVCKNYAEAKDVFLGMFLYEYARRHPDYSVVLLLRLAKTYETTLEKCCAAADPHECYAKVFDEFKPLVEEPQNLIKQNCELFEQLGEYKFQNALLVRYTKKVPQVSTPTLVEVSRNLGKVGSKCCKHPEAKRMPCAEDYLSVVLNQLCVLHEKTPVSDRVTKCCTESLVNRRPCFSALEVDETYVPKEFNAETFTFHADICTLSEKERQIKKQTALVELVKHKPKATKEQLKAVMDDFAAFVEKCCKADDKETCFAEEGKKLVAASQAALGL

One assay addresses T1, Mouse mPDL1-HSA fusion protein (mouse).
T1 construct: The entry is the whole fusion of mouse PD-L1 with HSA; also called mouse PDL1
The experiment in a line: ELISA on coated mPDL1-HSA, anti-his detection. The protocol:
Mouse mPDL1-HSA fusion protein (SEQ ID NO: 52) was coated onto a plate overnight in an amount of 200 ng/ well at 4° C., and blocked with 5% skimmed milk powder for 1 hr at room temperature. The purified histidine-tagged anti-PDL1single-domain antibody was diluted to 1 μg/mL, then added to the plate in an amount of 100 μL/well, and incubated at 37° C. for 1 hr. After washing three times with PBST, 100 μl/well of 1:5000 diluted mouse anti his tag antibody (R&D Systems Inc) was added, and the plate was incubated at room temperature for 1 hr. After washing with PBST, 100 μl/well of 1:10000 diluted HRP-Goat anti mouse IgG antibody (Thermo Scientific) was added, and the plate was incubated at room temperature for 1 hr. After washing with PBST, TMB was added for color development, and the OD value was detected at 450 nm.
Background: In an ELISA, binding on a coated surface is turned into a signal by an enzyme label.
Take B1: the binding result is reported as “no binding (tested: 1 µg/mL)”.

Take B2: the binding result was “no binding (tested: 1 µg/mL)”.

Turning to B3, the binding result is on record as “no binding (tested: 1 µg/mL)”.

On to B4, for which the binding result is “no binding (tested: 1 µg/mL)”.

As for B5, the binding result is given as “no binding (tested: 1 µg/mL)”.

Take B6: the binding result is recorded as “no binding (tested: 1 µg/mL)”.

The next assay deals with T2, HSA (purchased from Sigma) (human, UniProt P02768 25-609).
T2 construct: Control coating for the fusion partner of PDL1-HSA; also called human serum albumin
T2 sequence (P02768 25-609 limits assumed): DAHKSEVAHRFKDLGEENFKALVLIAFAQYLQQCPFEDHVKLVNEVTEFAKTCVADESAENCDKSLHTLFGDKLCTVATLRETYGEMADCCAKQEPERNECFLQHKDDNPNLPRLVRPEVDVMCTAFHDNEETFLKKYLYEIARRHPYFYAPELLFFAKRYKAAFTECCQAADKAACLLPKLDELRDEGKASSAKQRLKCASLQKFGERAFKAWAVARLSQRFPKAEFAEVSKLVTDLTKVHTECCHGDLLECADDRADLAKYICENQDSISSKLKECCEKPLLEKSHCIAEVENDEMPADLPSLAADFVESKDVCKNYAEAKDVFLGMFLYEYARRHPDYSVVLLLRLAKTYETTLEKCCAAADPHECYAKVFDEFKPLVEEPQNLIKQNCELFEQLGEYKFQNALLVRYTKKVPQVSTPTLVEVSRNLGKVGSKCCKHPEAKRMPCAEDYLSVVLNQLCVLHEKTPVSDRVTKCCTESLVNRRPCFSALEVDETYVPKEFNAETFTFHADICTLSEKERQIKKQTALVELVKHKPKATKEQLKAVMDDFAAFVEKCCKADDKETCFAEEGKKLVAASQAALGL
In words: ELISA, VHH at 1 µg/mL on coated HSA, anti-his detection. The protocol: (§1) Human PDL1-HSA or HSA (purchased from Sigma) was coated onto a plate in an amount of 200 ng/well at 4° C., and blocked with 5% skimmed milk powder for 1 hr at room temperature. The purified anti-PDL1single-domain antibody with a histidine-tag was diluted to 1 μg/mL, added to the plate in an amount of 100 μL/well, and incubated at 37° C. for 1 hr. After washing three times with PBST, 100 μl/well of 1:5000 diluted mouse anti-his tag antibody (R&D Systems Inc.) was added, and the plate was incubated at room temperature for 1 hr. After washing with PBST, 100 μwell of 1:10000 diluted HRP-Goat anti mouse IgG antibody (Thermo Scientific) was added, and the plate was incubated at room temperature for 1 hr. After washing with PBST, a TMB developing solution (Beijing ComWin Biotech Co., Ltd) was added for color development, and the OD value was read at 450 nm.
For B1, the OD450 nm amounted to 0.076 OD450 nm.

In turn, B2 came in with an OD450 nm of 0.073 OD450 nm.

As to B3, the OD450 nm came out at 0.081 OD450 nm.

B4 returned an OD450 nm of 0.082 OD450 nm.

B5 yielded an OD450 nm of 0.074 OD450 nm.

On to B6, for which the OD450 nm was 0.064 OD450 nm.

The target of another assay is T3, PDL1-HSA fusion protein composed of PDL1 extracellular domain and human serum albumin (human).
T3 construct: The entry is the whole fusion: PD-L1 extracellular domain, linker, human serum albumin; also called Human PDL1-HSA; hPDL1-HSA
T3 sequence (chain, as listed by the source limits assumed): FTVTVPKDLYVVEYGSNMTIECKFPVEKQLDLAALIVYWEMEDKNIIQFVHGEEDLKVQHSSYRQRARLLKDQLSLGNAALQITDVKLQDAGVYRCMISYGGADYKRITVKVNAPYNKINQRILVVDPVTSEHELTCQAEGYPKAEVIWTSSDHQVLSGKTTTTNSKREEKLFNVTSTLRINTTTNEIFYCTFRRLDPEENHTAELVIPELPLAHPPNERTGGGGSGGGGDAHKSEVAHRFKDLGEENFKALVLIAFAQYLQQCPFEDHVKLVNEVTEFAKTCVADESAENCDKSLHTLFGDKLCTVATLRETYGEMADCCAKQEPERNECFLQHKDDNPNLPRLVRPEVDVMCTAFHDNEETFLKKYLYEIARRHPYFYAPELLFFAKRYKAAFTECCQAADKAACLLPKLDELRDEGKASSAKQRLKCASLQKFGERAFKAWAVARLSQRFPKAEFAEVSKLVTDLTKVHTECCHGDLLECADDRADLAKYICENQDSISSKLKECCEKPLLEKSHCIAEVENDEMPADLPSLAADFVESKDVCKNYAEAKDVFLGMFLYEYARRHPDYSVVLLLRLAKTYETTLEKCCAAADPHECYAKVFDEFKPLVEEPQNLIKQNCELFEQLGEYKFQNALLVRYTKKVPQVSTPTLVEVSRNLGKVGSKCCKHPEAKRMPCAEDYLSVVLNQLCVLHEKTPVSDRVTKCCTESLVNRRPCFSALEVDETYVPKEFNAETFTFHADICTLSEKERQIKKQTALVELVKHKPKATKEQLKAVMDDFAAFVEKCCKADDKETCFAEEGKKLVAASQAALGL
In words: ELISA, VHH at 1 µg/mL on coated PDL1-HSA, anti-his detection. On the procedure: as §1
In turn, B1 returned an OD450 nm of 2.15 OD450 nm.

As for B2, the OD450 nm is 2.08 OD450 nm.

Molecule B3 returned an OD450 nm of 2.05 OD450 nm.

The molecule B4 returned an OD450 nm of 2.05 OD450 nm.

B5 displayed an OD450 nm of 2.01 OD450 nm.

Turning to B6, the OD450 nm is 2.02 OD450 nm.

Another assay deals with T3, PDL1-HSA fusion protein composed of …. The experiment in a line: competitive ELISA on coated PDL1-HSA; competitor PD1-Fc (4.8 µg/mL, mixed in equal volume). The protocol:
PDL1-HSA was coated onto a plate overnight in an amount of 200 ng/well at 4° C., and blocked with 5% skimmed milk powder for 1 hr at room temperature. […] 100 μl was added per well and incubated at 37° C. for 1 hr. After washing three times with PBST, 100 μl of 1:20000 diluted HRP-Goat anti-Human IgG Fc(Novex) was added to each well, and incubated at room temperature for 1 hr. After washing three times with PBS, TMB substrate was added, and the plated was incubated at 37° C. After incubation for 5 min to develop color, 1 M sulfuric acid was added to stop the reaction. The OD value was read at 450 nm, and the half maximal inhibitory concentration (IC50 value) was calculated.
Take B1: the IC50 came out at 0.0551 µg/mL.

Molecule B2 came in with an IC50 of 0.0628 µg/mL.

Molecule B3 yielded an IC50 of 0.0527 µg/mL.

With B4, the IC50 was 0.0505 µg/mL.

In turn, B5 came in with an IC50 of 0.0452 µg/mL.

B6 yielded an IC50 of 0.0436 µg/mL.
